Experimental data: the Immune Epitope Database (IEDB)
Blank lines part the entries; values can stand above or below the sequence they belong to.

What was measured:
HLA-A*02:01 [1] = assay: IEDB peptide-MHC binding, purified MHC/competitive/fluorescence; ≥ and ≤ were set here for values at or beyond the usual limits of such assays
HLA-A*01:01 [2] = assay: IEDB peptide-MHC binding, purified MHC/competitive/radioactivity; filed as Kd, often an IC50 or EC50 that approximates it; ≥ and ≤ were set here for values at or beyond the usual limits of such assays
HLA-A*30:02 = assay: as above
HLA-A*69:01 = assay: IEDB peptide-MHC binding, purified MHC/direct/fluorescence; filed as Kd, often an IC50 or EC50 that approximates it; ≥ and ≤ were set here for values at or beyond the usual limits of such assays
HLA-B*40:01 [3] = assay: as above; conditions: source organism: Haemophilus influenzae
HLA-A*31:01 [4] = assay: as above; conditions: source organism: Haemophilus influenzae
HLA-A*02:06 = assay: IEDB peptide-MHC binding, purified MHC/competitive/radioactivity; filed as Kd, often an IC50 or EC50 that approximates it; ≥ and ≤ were set here for values at or beyond the usual limits of such assays
HLA-A*02:02 = assay: as above
HLA-A*02:03 = assay: as above
HLA-B*07:02 = assay: IEDB peptide-MHC binding, purified MHC/direct/fluorescence; filed as Kd, often an IC50 or EC50 that approximates it; ≥ and ≤ were set here for values at or beyond the usual limits of such assays
HLA-A*26:01 = assay: IEDB peptide-MHC binding, purified MHC/competitive/radioactivity; filed as Kd, often an IC50 or EC50 that approximates it; ≥ and ≤ were set here for values at or beyond the usual limits of such assays
HLA-B*40:01 [5] = assay: as above
HLA-B*44:02 = assay: as above; conditions: source organism: Dengue virus 1 Brazil/97-11/1997
HLA-A*02:01 [6] = assay: IEDB peptide-MHC binding, purified MHC/direct/fluorescence; filed as Kd, often an IC50 or EC50 that approximates it; ≥ and ≤ were set here for values at or beyond the usual limits of such assays
HLA-B*58:01 = assay: as above; conditions: source organism: Human immunodeficiency virus 1
HLA-A*33:01 = assay: IEDB peptide-MHC binding, purified MHC/competitive/radioactivity; filed as Kd, often an IC50 or EC50 that approximates it; ≥ and ≤ were set here for values at or beyond the usual limits of such assays; conditions: source organism: Dengue virus 2 Jamaica/1409/1983
HLA-A*31:01 [7] = assay: as above; conditions: source organism: Dengue virus 2 Jamaica/1409/1983
HLA-A*68:01 = assay: as above; conditions: source organism: Dengue virus 2 Jamaica/1409/1983
HLA-A*24:02 = assay: as above
HLA-A*11:01 = assay: IEDB peptide-MHC binding, purified MHC/direct/fluorescence; filed as Kd, often an IC50 or EC50 that approximates it; ≥ and ≤ were set here for values at or beyond the usual limits of such assays; conditions: source organism: Yellow fever virus 17D
HLA-A*01:01 [8] = assay: as above; conditions: source organism: Homo sapiens
[9] = source organism: Sudan ebolavirus
[10] = source organism: Dengue virus 1 Brazil/97-11/1997
[11] = source organism: Vaccinia virus WR
[12] = source organism: Dengue virus 3 Martinique/1243/1999
[13] = source organism: Mammarenavirus caliense
[14] = source organism: Dengue virus 2 Jamaica/1409/1983
[15] = source organism: Zaire ebolavirus
[16] = source organism: Dengue virus 4 Philippines/H241/1956
[17] = source organism: Bacillus anthracis
[18] = source organism: Mammarenavirus guanaritoense

Sequence: QIPSSSPTT
IC50 (HLA-A*02:01 [1]; [9]): 42800 nM

Sequence: QLSKSEFNTY
Kd (HLA-A*01:01 [2]; [10]): 1390 nM | Kd (HLA-A*30:02; [10]): 71.1 nM

Kd (HLA-A*69:01; source organism: Haemophilus influenzae): 337 nM | Kd (HLA-B*40:01 [3]): 227 nM | Kd (HLA-A*31:01 [4]): 924 nM
Sequence: RFEAYGWQV

Sequence: RINLLVQYGA
Kd (HLA-A*02:06; [11]): 7650 nM | Kd (HLA-A*02:02; [11]): 10300 nM | Kd (HLA-A*02:03; [11]): 15300 nM

Sequence: RNPQKENDQY
Kd (HLA-A*30:02; [12]): ≥ 69700 nM

Sequence: RPEAAAGQL
Kd (HLA-B*07:02; source organism: Mycobacterium tuberculosis variant bovis BCG str. Pasteur 1173P2): 179 nM

Sequence: RQVSVKLLI
Kd (HLA-A*02:06; [11]): 0.135 nM | Kd (HLA-A*02:02; [11]): 17900 nM | Kd (HLA-A*02:03; [11]): 254 nM

Sequence: RTPQDNQLAY
Kd (HLA-A*01:01 [2]; [10]): 703 nM | Kd (HLA-A*30:02; [10]): 267 nM

Sequence: SEFKSRFFIW
Kd (HLA-A*01:01 [2]; [13]): 2210 nM | Kd (HLA-A*26:01; [13]): ≥ 69700 nM | Kd (HLA-A*30:02; [13]): 7480 nM

Sequence: SELPETLETL
Kd (HLA-B*40:01 [5]; [14]): 7.2 nM

Sequence: SFTVVSNGA
IC50 (HLA-A*02:01 [1]; [15]): ≥ 372000 nM

Sequence: SIYIAVANCV
Kd (HLA-A*02:06; [11]): 1000 nM | Kd (HLA-A*02:02; [11]): 534 nM | Kd (HLA-A*02:03; [11]): 62.7 nM

Sequence: SLEKAAEVSW
Kd (HLA-B*44:02): 174 nM

Sequence: SLETVKMGA
Kd (HLA-A*02:06; [11]): ≥ 23400 nM | Kd (HLA-A*02:02; [11]): 11200 nM | Kd (HLA-A*02:03; [11]): 547 nM

Sequence: SLIPDATHL
Kd (HLA-A*02:01 [6]; source organism: Lassa virus Josiah): 18.1 nM

Sequence: SLVSKHWEL
Kd (HLA-A*02:06; [11]): 34.9 nM | Kd (HLA-A*02:02; [11]): 1.16 nM | Kd (HLA-A*02:03; [11]): 36 nM

Sequence: SPSKRNQTF
Kd (HLA-B*07:02; source organism: Mammarenavirus amapariense): 66.8 nM

Sequence: SRKTFDSEY
Kd (HLA-A*30:02; [14]): 3810 nM

Sequence: STESHNQTF
Kd (HLA-A*01:01 [2]; [14]): 8210 nM

Sequence: STFNMWREIL
Kd (HLA-A*02:06; [11]): 3360 nM | Kd (HLA-A*02:02; [11]): 3120 nM | Kd (HLA-A*02:03; [11]): 907 nM

Sequence: STTENAAYQV
Kd (HLA-A*02:06; [11]): 101 nM | Kd (HLA-A*02:02; [11]): 928 nM | Kd (HLA-A*02:03; [11]): 4700 nM

Sequence: TAVPWNASW
Kd (HLA-B*58:01): 13 nM

Sequence: TLAGVNVGE
IC50 (HLA-A*02:01 [1]; [15]): ≥ 211000 nM

Sequence: TLLGLILFVL
Kd (HLA-A*02:06; [11]): 672 nM | Kd (HLA-A*02:02; [11]): 169 nM | Kd (HLA-A*02:03; [11]): 796 nM

Sequence: TQSRPIQNV
IC50 (HLA-A*02:01 [1]; [15]): 14600 nM

Sequence: TTDISEMGA
Kd (HLA-A*01:01 [2]; [16]): 188 nM

Sequence: TTQDEGAAI
IC50 (HLA-A*02:01 [1]; [15]): ≥ 220000 nM

Sequence: TVMDIISRR
Kd (HLA-A*26:01; [14]): 2710 nM | Kd (HLA-A*33:01): 11.1 nM | Kd (HLA-A*31:01 [7]): 17.9 nM | Kd (HLA-A*68:01): 3.87 nM

Sequence: TWHYDEDNPY
Kd (HLA-A*30:02; [10]): 3070 nM

Sequence: TWPKSHTLW
Kd (HLA-A*24:02; [12]): 39.8 nM

Sequence: TYGLNTFTN
Kd (HLA-A*24:02; [14]): 1590 nM

Kd (HLA-A*24:02; source organism: Homo sapiens): 149 nM
Sequence: VAELVHFLL

Sequence: VAGGLLLAAY
Kd (HLA-A*30:02; [16]): 78.7 nM

Sequence: VAIDLDPVVY
Kd (HLA-A*01:01 [2]; [10]): ≥ 33400 nM | Kd (HLA-A*30:02; [10]): 825 nM

Sequence: VDLHPASAW
Kd (HLA-B*44:02): 80.2 nM

Sequence: VEDYGFGMF
Kd (HLA-B*40:01 [5]; [16]): 965 nM

Sequence: VILSLPRIA
IC50 (HLA-A*02:01 [1]; source organism: Variola virus): 1390 nM

Sequence: VIRHVDGKIL
Kd (HLA-A*02:06; [11]): ≥ 69800 nM | Kd (HLA-A*02:02; [11]): ≥ 70000 nM | Kd (HLA-A*02:03; [11]): ≥ 33400 nM

Sequence: VLNGAELSN
IC50 (HLA-A*02:01 [1]; source organism: Vaccinia virus): ≥ 114000 nM

Sequence: VLRGNRQGL
Kd (HLA-A*69:01; [17]): ≥ 20000 nM | Kd (HLA-A*02:01 [6]; [17]): 4460 nM

Sequence: VLWDIPTPK
Kd (HLA-A*11:01): 4.4 nM

Sequence: VTNSTLEVT
IC50 (HLA-A*02:01 [1]; [9]): ≥ 122000 nM

Sequence: VYTQLCDHRL
Kd (HLA-A*24:02; [12]): 6.35 nM

Sequence: WSAIFFTTSL
Kd (HLA-A*02:06; [18]): 1400 nM | Kd (HLA-A*02:02; [18]): 2000 nM | Kd (HLA-A*02:03; [18]): 6990 nM

Sequence: YENLKYSVIV
Kd (HLA-B*40:01 [5]; [10]): 70.6 nM

Kd (HLA-A*01:01 [2]; source organism: Homo sapiens): 90 nM
Sequence: YVDFREYEYD

Kd (HLA-A*01:01 [8]): 92.3 nM | Kd (HLA-A*69:01; source organism: Homo sapiens): 2000 nM
Sequence: YVDHYYRDY
